Km data for one protein are collected here from US20120164670A1, “METHODS AND KITS FOR MEASURING ENZYME ACTIVITY” (President and Fellows of Harvard College, priority 2009, published 2012).

Substrate in the series: CC(=O)NCCCC[C@H](NC(=O)[C@H](CCCNC(=N)N)NC(=O)[C@H](C)NC(=O)[C@@H](N)[C@@H](C)O)C(=O)N[C@@H](CO)C(=O)N[C@H](C(=O)NCC(=O)O)[C@@H](C)O
Nature of the series: Sirtuin assay kit (PNC1-OPT) with hSIRT1 enzyme. As to conditions: other: kit protocol, Experiment 2 mastermix; pH 8.0; 37.0 °C. It counts as biochemical, human. The method, then:
Kit contents are generally stored at −20° C. Modifications or variations in volumes or amounts of components described below are compatible with kits and assays described herein. • 1) Assay Buffer: 2 tubes with 1 mL each of 10× Assay Buffer. Dilute to 1× with ddH20 prior to use. • 2) Non-tagged Peptide Substrate: 1 tube with 140 uL of 5 mM H3K9ac substrate (TARK(ac)STG)) (SEQ ID NO:23). This is a sample substrate only; any substrate may be used in this assay. • 3) β-NAD: a) 1 tube with 450 uL of 10 mM B-NAD, and b) 1 tube with 50 uL of 100 mM B-NAD. In some instances, it is preferable to keep β-NAD in concentrated aliquot form, and dilute it prior to use. • 4) hSIRT1 Enzyme: 1 tube with 400 uL of 1.1 ug/uL full-length human SIRT1 enzyme. • 5) yPNC1 Enzyme: 1 tube with 200 uL of 2 ug/uL yeast PNC1 enzyme • 6) Developing Reagent: 2 vials with 10 mL each 1× Developer (10 mM OPT/10 mM DTT in 100% EtOH). Minimize exposure to light as outlined in the procedure. […]
In some instances, when adding the OPT Developer it is advisable to work in a dark or dimly lit setting. […] Once covered, ambient lighting may be restored. • d) Read the samples. Samples may be transferred to a 96-well plate for reading (do this under dim light). Read the fluorescence on a fluorometer with filters set to excitation ˜420 nm, and emission ˜460 nm. […]

B1: full-length human SIRT1 enzyme (Homo sapiens) (protein)
chain: MADEAALALQPGGSPSAAGADREAASSPAGEPLRKRPRRDGPGLERSPGEPGGAAPEREVPAAARGCPGAAAAALWREAEAEAAAAGGEQEAQATAAAGEGDNGPGLQGPSREPPLADNLYDEDDDDEGEEEEEAAAAAIGYRDNLLFGDEIITNGFHSCESDEEDRASHASSSDWTPRPRIGPYTFVQQHLMIGTDPRTILKDLLPETIPPPELDDMTLWQIVINILSEPPKRKKRKDINTIEDAVKLLQECKKIIVLTGAGVSVSCGIPDFRSRDGIYARLAVDFPDLPDPQAMFDIEYFRKDPRPFFKFAKEIYPGQFQPSLCHKFIALSDKEGKLLRNYTQNIDTLEQVAGIQRIIQCHGSFATASCLICKYKVDCEAVRGDIFNQVVPRCPRCPADEPLAIMKPEIVFFGENLPEQFHRAMKYDKDEVDLLIVIGSSLKVRPVALIPSSIPHEVPQILINREPLPHLHFDVELLGDCDVIINELCHRLGGEYAKLCCNPVKLSEITEKPPRTQKELAYLSELPPTPLHVSEDSSSPERTSPPDSSVIVTLLDQAAKSNDDLDVSESKGCMEEKPQEVQTSRNVESIAEQMENPDLKNVGSSTGEKNERTSVAGTVRKCWPNRVAKEQISRRLDGNQYLFLPPNRYIFHGAEVYSDSEDDVLSSSSCGSNSDSGTCQSPSLEEPMEDESEIEEFYNGLEDEPDVPERAGGAGFGTDGDDQEAINEAISVKQEVTDMNYPSNKS
notes: 1.1 ug/uL full-length human SIRT1 enzyme
Regarding B1, the Michaelis-Menten constant (Km) (in general, the concentration of substrate that gives half-maximal velocity) amounted to 50 µM.
